According to paper PMC3614025:
Several values for one entry are separate records, joined by “and”; a condition that tells them apart may be missing. Equal values may be shown once.

Target: Chikungunya virus nuclear capsid protein (Chikungunya virus)
Assay: cryo-EM structure

Substance: Chikungunya virus nuclear capsid protein (natural protein)
- stoichiometry N: 5 and 6
